{"source": "the DeepSol protein solubility set", "data": [{"test": "soluble on expression in E. coli; label from the status in PepcDB or PDB records", "values": [{"sequence": "MSLTADKYTVAINENALKILGEIVFLMGASQNFAKYPVSFIINYLLPSIYLNQYRIYRTVKDNKPIGFACWAFINDQVEKELIENDINLSVEERNSGENIYVLYFIAPFGHAKQIVHDLKNNIFPNKIVKGLRLDKDGKKVLRVATYYEGHHHHHH", "soluble on expression in E. coli": "soluble"}, {"sequence": "MSLTADPPACTVPAAGGASTHKLVNAGAEKMIFKIKSSNNNEYRITPVFGFVDPSGSKDITITRTAGAPKEDKLVVHFAAAPADATDAQAAFAAITPAGTITIPMSATA", "soluble on expression in E. coli": "soluble"}, {"sequence": "MSLTAELQALDAAHHLHPFSANNALGEEGTRVITRARGVWLNDSEGEEILDAMAGLWCVNIGYGRDELAEVAARQMRELPYYNTFFKTTHVPAIALAQKLAELAPGDLNHVFFAGGGSEANDTNIRMVRTYWQNKGQPEKTVIISRKNAYHGSTVASSALGGMAGMHAQSGLIPDVHHINQPNWWAEGGDMDPEEFGLARARELEEAILELGENRVAAFIAEPVQGAGGVIVAPDSYWPEIQRICDKYDILLIADEVICGFGRTGNWFGTQTMGIRPHIMTIAKGLSSGYAPIGGSIVCDEVAHVIGKDEFNHGYTYSGHPVAAAVALENLRILEEENILDHVRNVAAPYLKEKWEALTDHPLVGEAKIVGMMASIALTPNKASRAKFASEPGTIGYICRERCFANNLIMRHVGDRMIISPPLVITPAEIDEMFVRIRKSLDEAQAEIEKQGLMKSEGHHHHHH", "soluble on expression in E. coli": "not soluble"}, {"sequence": "MSLTALMVGTGRGAKMGILIKNGEVLEAVNDVQTVVFDKTGTLTVGKPQVTDIIGDSKQVLRIAASLEDSSEHPLAAAILAKAKADNISTLPVENFTAIEGKGVAATISGQQGVVGNQKLLGDLTFNKQLQQQETRLQNEAKTVVFVGLDDRIIGLIAIQDAPKPTSKEAIAALRARGLRTVMLTGDNQRVAQAVAQQIGIDEVIADVLPGDKAAQIKQFQHDEGHHHHHH", "soluble on expression in E. coli": "soluble"}, {"sequence": "MSLTASYETIKARLDGTVLSATFNAPPMNLIGPEVVRDLVALLEELAHPTAPRVVIFDSADADFFFPHVDMTKVPEYTAEAAKAGGPGDASLGMLFRKLSQLPAVTIAKLRGRARGAGSEFLLACDMRFASRENAILGQPEVGIGAPPGAGAIQHLTRLLGRGRALEAVLTSSDFDADLAERYGWVNRAVPDAELDEFVAGIAARMSGFPRDALIAAKSAINAISLPAPAEVRADAALFQQLVRGEKVQQRTAELFKQGFQTRGATELDLGDALGHLKAVDEGHHHHHH", "soluble on expression in E. coli": "soluble"}, {"sequence": "MSLTDLSMPKPPSVLPDKRQVAASFSRAAGSYESVAELQRSVGSELLSRLPAQFSPVRWLDLGSGTGYFSRALDQVFSGSEGIALDIAEGMLRHAQPLGGAQHFVAGDAEHLPLRDQSCGLIFSSLAVQWCADFAAVLREAHRVLQPSGVFAFASLCVGTLYELRDSWQAVDGQVHVNRFRHEDDYRQLCAASGLQVRSLDVCPQVLHYPDVRSLTHELKALGAHNLNPGRPSGLTGRERIKGMVQAYEAFRQEAGLPATYQVVYAVLEKAEGHHHHHH", "soluble on expression in E. coli": "not soluble"}, {"sequence": "MSLTDNLVRVVCVSDTHNTKPNLPDGDILIHAGDLTESGTKEELEKQIYWLDSQPHRYKIVIAGNHETFLDRNYHSHHGNERVTMDWKSLIYLENTSAILDLGAGHQLKVFGSPYTPKHGNGAFQYPRTDTTTWEEIPKDTDLLVTHGPPKAHLDLGHLGCRVLRQALWEMESRPLLHVFGHIHGGYGKEEGHHHHHH", "soluble on expression in E. coli": "soluble"}, {"sequence": "MSLTDPNRLTLFYSPQTRATGMRVLLEELGAPYDLHVLNMKAGEQRQPAYLAINPLGKVPAIRRGDALVTEQVAITIYLADLFPGAGLAPSLDDPLRGPYLRWIAYYGSTFEPAVVDRSMQREPGPAEMSPYADYDTMLGALEAQLATGPYLLGDRFTAADVLWGIALNWTLNFGLVPKKDAFVRYAELVTARPAFRRVDLADAEMAAEGHHHHHH", "soluble on expression in E. coli": "soluble"}, {"sequence": "MSLTDRTIGEAAELLGVTTRTLRHWDSIGLLQPSWRTTTDYRLYTEDDVERALQILIYRAAGIGLKDIAEVLDQPDSANQHLRRQRELLVEQIGQLHRMVRAVDEILGKDAISVKEKIEIFGEDLPKYQEEAFQRWGEGHHHHHH", "soluble on expression in E. coli": "soluble"}, {"sequence": "MSLTECFLSDQEIRKLNRDLRILIAANGTLTRVLNIVADDEVIVQIVKQRIHDVSPKLSEFEQLGQVGVGRVLQRYIILKGRNSEHLFVAAESLIAIDRLPAAIITRLTQTNDPLGEVMAASHIETFKEEAKVWVGDLPGWLALHGYQNSRKRAVARRYRVISGGQPIMVVTEHFLRSVFRDAPHEEPDRWQFSNAITLAREGHHHHHH", "soluble on expression in E. coli": "soluble"}, {"sequence": "MSLTELLNNQDYRKEALKEIIRELHRGKSVEEVKARFNELIKDVAPAEISLMEQALINEGLPVEEVQRLCDVHAAVFKESLERAPQPETIPGHPVHTFKEENRALEDLMIREIQPLLAELRRANPDVEKDLAIKLAEKLNLLQDVNKHYSRKENLLFPYLEKYQIVGPPKVMWGVDDEIRDLLKEARDLAVNYVPDKKEELITRTEAALAKIKEMIFKEERILFPMALETLTEDEWYRIMLDSASIGYCLIEPREDWRPAQVKLDQKETVASEETRGYIKFATGILTPREISLIFDHLPVDITFVDKDNVVKYFSNTRERIFTRSRAVIGRRVENCHPPASVQVVEKLIADFKSGRKDREAFWLHLGDKYVFIQYFAVRDEKGDFAGTLEVTMDLKPLQAISGEKRIMDEGHHHHHH", "soluble on expression in E. coli": "soluble"}, {"sequence": "MSLTESARATVSLGFTAELFPPGTHMCYIYNDERERLEIMSEFVRSGIESGEKIAYFVEEMSPQALRDYLAGLGIVPTEEAQLEIAPSVDVYCPEGRFSPDRMLGRLRSAYEDGIREGFNGVRLTGEMHWALRGLPGSERLAEYESRINLLVVDCPLTVICQYDANHFDGATLFKILNAHPMMIVRGQVVHNPYYLSPEEYFARYPVPNVEGHHHHHH", "soluble on expression in E. coli": "soluble"}, {"sequence": "MSLTIAHLTSSAFAVNKERNKFLMIHHNIYNSWAWTGGHSDNEKDQLKVAIKELKEETGVKNPTPLLDKAFALDVLTVNGHIKRGKYVSSHLHLNLTYLIECSEDETLMLKEDENSGVMWIPFNEISKYCSEPHMIPIYEKLINKLKTQSKEGHHHHHH", "soluble on expression in E. coli": "not soluble"}, {"sequence": "MSLTIDHSVTNTEQLEQQNPAIKTKLKLKKLKDQVIVITGASSGIGLVTARMAAEKGAKVVAAARNEEALKELTDELKEKGHDAIWVKADVGKEEDVNRIAETAISTFGRFDTWVNNAAVSTFGHAMDVTVEDMKRMFDTNFWGPVYGTRAAVKHYTGRGVPGALINVGSLFGDRGTVIQSTYASAKFALHGWTESIRMELEKEQAPVSVTLIHPGRIDTPYNEHAHSYLDKQPAHYRSMIYPPEAVAEAILFAAEHPKRDMYIGSQAKAIAMLGALFPRLTDRLMEKIMYHSQHAERPSNPREGHHHHHH", "soluble on expression in E. coli": "soluble"}, {"sequence": "MSLTIGFIFDLDGVITDTAKFHYQAWKALADSLGIPIDETFNETLKGISRMDSLDRILVHGHRENAFTPAEKEALAQQKNDHYVQLLEQLTTEDVLPGVVPLLQQAQARHIPCAVASASKNAPLILEKLGVRAYFATIVDPDSLSKGKPDPEIFLAAADSIGVLPQNAIGFEDAQSGIDGLKAAGIYAVGLSASQPLIGADMQVSEMTELSVDALLNREGHHHHHH", "soluble on expression in E. coli": "soluble"}, {"sequence": "MSLTISLGYRALDVGRARAHALIDQLSARESVELLCEAFEVPRSCYYNHRLRRRNPDVERVRLRSRVNELFTQSRSAAGSRSIVLMMHEDGEQIGRFKVRSLMRELGLISKQPGSHAYRKATVERPDIPNILNRAFDVPAPNQVWCGDITYIWAQGKWHYLAVVMDLFARRVVGWALSSKPDTDLVIKALDMAYEQRGKPQGLLFHSDQGAQYGSRQFRQRLWRYRIRQSMSRRGNCWDNAPMERVFRSLKTEWIPTVGYMTAQEAQRDISHYLMHRYNWIRPHQFNNGLAPAQSEKRLNVVSGISEGHHHHHH", "soluble on expression in E. coli": "not soluble"}, {"sequence": "MSLTITDWASTVNLNYDMSNKPVIAHVWKEQNANWLYGGWVCRSDRDENEGACDETKLPPGMLYGVTKIRLRFREQISHAETTLILDGQSGGFCLSTKISGGSVCKYLMQTCLSTFLQKSLRRYQKLAYGRLRWPWMEGHHHHHH", "soluble on expression in E. coli": "not soluble"}, {"sequence": "MSLTITVLQGGNVLDLERGVLLEHHHVVIDGERIVEVTDRPVDLPNAQAIDVRGKTVMPGFIDCHVHVLASNANLGVNATQPNILAAIRSLPILDAMLSRGFTSVRDAGGADWSLMQAVETGLVSGPRIFPSGKALSQTGGHGDFRPRGDLLEPCSCCFRTGAIARVVDGVEGVRLAVREEIQKGATQIKIMASGGVASPTDPIANTQYSEDEIRAIVDEAEAANTYVMAHAYTGRAIARAVRCGVRTIEHGNLVDEAAAKLMHEHGAFVVPTLVTYDALAKHGAEFGMPPESVAKVASVQQKGRESLEIYANAGVKMGFGSDLLGEMHAFQSGEFRIRAEVLGNLEALRSATTVAAEIVNMQGQLGVIAVGAIADLVVLDGNPLEDIGVVADEGARVEYVLQRGTLVKRQAAGREGHHHHHH", "soluble on expression in E. coli": "soluble"}, {"sequence": "MSLTIYHPAELPQRQAEKSPNKTIIKYYDRESKQWRNISWSKFAAGVMNAAKALAEIGLESGERIGIYSPNMVHCLYTELGAFAMRGVVVPLYATSSPEQLRFIVEDSSMETLFVGEQFQYNNAYRVQKEYGTLKRIVVFDERVVLNPEDKTSKYFSEFVRLGDSMPNETKVKVSSREAIPSDPALIIYTSGTSGRSKGVLLLHSNLMYQMKVHSEHIPVYGPGELSIAFLPMSHIFEKAWTLFCLTTGTRIAILRDPKKVLEALPQIRPSLMCNVPRFWEKVYQGVNEKMASSPRILKGVYRRAMAVGQRYRLDYWNEGKRAPLLLSMQYAFYNCTIFTLLKRVLGLQRGRYFPTAGAPLSDEINIFLQSVNIPIIVGYGLSETTATVSFYPQRGFKIGSMGKVMPGLDARIDPDNNEILVKGESVMSEYYNLPEETAGAFTPDGYFRTGDAGRMDPDGTLYFLERIKDLYKTANGKYIAPQMIEGMLTKDPIIEQIAVIGDRFKYVSALVYPNWELVRQAAIKRGLEQARTMSVDEMAANPEINRLMMARIEAAQDSLAAYEKVKYITLLAEPFTLEKGELTETMKLKRRVINEHYAEAIEKMYEGHHHHHH", "soluble on expression in E. coli": "soluble"}, {"sequence": "MSLTPAPDLTLGTAVDWRFAATVGRRLARPGPPSTDYTRRQVIDELAGAATKAEPLVRQVTGLLTDGADDGRVPAARIVDRPEWIAAAAESMRVMMNGTERPRGFLTGRVTGAQTGAVLAYVSSGILGQYDPFATDRGAGAGCLLLVYPNVIAVERQLRIEPSDFRLWVCLHEVTHRVQFTANPWLPGYMSQALALLTRDTGDDLGQVLSRLADYARNRGNTASQADANSTGILGLVRAVQSEPQRQALDQLLVLGTLLEGHADHVMDAVGPMAVPSVATIRRRFDERRHRKQPPLQRLLRALLGLDAKLSQYTRGKAFVDQVVGRVGMARFNAVWTGPETLPLPVEIEEPQRWIDRVLEGHHHHHH", "soluble on expression in E. coli": "soluble"}, {"sequence": "MSLTQLQITAFGDPSVLRLNPSLDKVPADGEVRVRICFAGVNPIDAKTRAGLGWAAAQNKDKLPWTPGYDVAGVVEKIGPGVTALAEGDRVCGMVGFPLAAGGYGESVVAREEELVRLEDIGLRQGAALPLAGLTAWQGLFEHGALKAGQRVLILAGAGGVGHLAVQFASAYGAEVVATASRDNHSFLHGLGASRMVDYHDADWVAQVGQVELVLDLVGGESGKAALACVKPGGRLVTVPTISAQQIKDAAAGSAIEVLGMLVHPDRQQLSQMLTLLRQGEVQVTVAGEYALAEGALAHQAIEQGHVRGKLLLRMPAAEGHHHHHH", "soluble on expression in E. coli": "soluble"}]}]}
